Measurements as given in patent US20210246166A1 (Bayer, published 2021).
One block for each binder: values may come before it. Bridge positions count the residues as written; N and C are the ends. Square brackets hold non-standard residues; d marks the D form. Ends that are not written are not given here. Pro(cis-4-CF3) = O=C(O)[C@@H]1C[C@H](C(F)(F)F)CN1; Oic = O=C(O)[C@@H]1C[C@@H]2CCCC[C@@H]2N1; NMeI = CC[C@H](C)[C@H](NC)C(=O)O; tBuAla = CC(C)(C)C[C@H](N)C(=O)O; PEG4 = NCCOCCOCCOCCOCCC(=O)O; Pen = CC(C)(S)[C@H](N)C(=O)O; NMeC = CN[C@@H](CS)C(=O)O; NMeA = CN[C@@H](C)C(=O)O; Orn = NCCC[C@H](N)C(=O)O; Sar = CNCC(=O)O

Key:
[1] = target: T1, recombinant human MASP1 active protease (amino acids 297-699, C-terminal His Tag) (human, UniProt P48740 297-699); test: cell-based or functional assay
T1 sequence: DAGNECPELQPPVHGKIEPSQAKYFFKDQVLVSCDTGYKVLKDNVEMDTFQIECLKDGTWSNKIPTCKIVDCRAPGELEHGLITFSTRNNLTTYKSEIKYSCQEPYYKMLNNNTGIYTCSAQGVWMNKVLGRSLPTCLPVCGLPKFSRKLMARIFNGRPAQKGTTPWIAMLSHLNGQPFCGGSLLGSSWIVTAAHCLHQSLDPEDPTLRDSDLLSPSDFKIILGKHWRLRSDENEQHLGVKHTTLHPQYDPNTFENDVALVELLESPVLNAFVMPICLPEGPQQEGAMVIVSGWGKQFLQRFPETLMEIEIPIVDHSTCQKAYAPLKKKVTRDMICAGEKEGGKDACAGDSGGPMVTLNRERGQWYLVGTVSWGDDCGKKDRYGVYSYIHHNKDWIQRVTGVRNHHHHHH

[2] = target: recombinant human MASP2 active protease (amino acids 297-686, C-terminal His Tag) (human, UniProt O00187 297-686); test: cell-based or functional assay
Chain of recombinant human MASP2 active protease (amino acids 297-686, C-terminal His Tag) (O00187 other isoform, or with tags, fused parts or gaps limits assumed): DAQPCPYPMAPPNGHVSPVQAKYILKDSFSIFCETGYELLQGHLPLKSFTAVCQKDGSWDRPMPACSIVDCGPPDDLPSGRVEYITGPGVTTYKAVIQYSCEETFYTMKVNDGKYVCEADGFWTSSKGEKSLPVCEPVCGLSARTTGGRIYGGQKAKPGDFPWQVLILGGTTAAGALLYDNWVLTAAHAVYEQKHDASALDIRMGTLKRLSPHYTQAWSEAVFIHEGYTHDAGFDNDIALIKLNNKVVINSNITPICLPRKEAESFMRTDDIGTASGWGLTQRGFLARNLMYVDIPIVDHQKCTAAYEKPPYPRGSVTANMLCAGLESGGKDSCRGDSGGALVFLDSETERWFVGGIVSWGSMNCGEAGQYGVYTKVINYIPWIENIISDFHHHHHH

B1: ((N-Me)G)-IC+SRSLP-(Oic)-I-(Pen)+IP-(PEG3(16 atoms))-NH2 (peptide)
peptide: [Sar]ICSRSLP[Oic]I[Pen]IP[PEG4]-NH2
modifications: disulfide 3-11; N-terminus assumed
SMILES: CC[C@H](C)[C@H](NC(=O)CNC)C(=O)N[C@H]1CSSC(C)(C)[C@@H](C(=O)N[C@H](C(=O)N2CCC[C@H]2C(=O)NCCOCCOCCOCCOCCC(N)=O)[C@@H](C)CC)NC(=O)[C@H]([C@@H](C)CC)NC(=O)[C@@H]2C[C@@H]3CCCC[C@@H]3N2C(=O)[C@@H]2CCCN2C(=O)[C@H](CC(C)C)NC(=O)[C@H](CO)NC(=O)[C@H](CCCNC(=N)N)NC(=O)[C@H](CO)NC1=O
human MASP1 IC50 [1]: 0.0032 µM
human MASP2 IC50 [2]: 0.079 µM

B2: (Orn)-IC+SRS-((tBu)A)-PPI-(Pen)+IP-NH2 (peptide)
peptide: [Orn]ICSRS[tBuAla]PPI[Pen]IP-NH2
modifications: disulfide 3-11; N-terminus assumed
SMILES: CC[C@H](C)[C@H](NC(=O)[C@@H](N)CCCN)C(=O)N[C@H]1CSSC(C)(C)[C@@H](C(=O)N[C@H](C(=O)N2CCC[C@H]2C(N)=O)[C@@H](C)CC)NC(=O)[C@H]([C@@H](C)CC)NC(=O)[C@@H]2CCCN2C(=O)[C@@H]2CCCN2C(=O)[C@H](CC(C)(C)C)NC(=O)[C@H](CO)NC(=O)[C@H](CCCNC(=N)N)NC(=O)[C@H](CO)NC1=O
human MASP1 IC50 [1]: 0.0032 µM
human MASP2 IC50 [2]: 0.093 µM

B3: AIC+SRS-((tBu)A)-P-((4-CF3)P)-I-((N-Me)C)+IPD-NH2 (peptide)
peptide: AICSRS[tBuAla]P[Pro(cis-4-CF3)]I[NMeC]IPD-NH2
modifications: disulfide 3-11; N-terminus assumed
SMILES: CC[C@H](C)[C@H](NC(=O)[C@H](C)N)C(=O)N[C@H]1CSSC[C@@H](C(=O)N[C@H](C(=O)N2CCC[C@H]2C(=O)N[C@@H](CC(=O)O)C(N)=O)[C@@H](C)CC)N(C)C(=O)[C@H]([C@@H](C)CC)NC(=O)[C@@H]2C[C@H](C(F)(F)F)CN2C(=O)[C@@H]2CCCN2C(=O)[C@H](CC(C)(C)C)NC(=O)[C@H](CO)NC(=O)[C@H](CCCNC(=N)N)NC(=O)[C@H](CO)NC1=O
human MASP1 IC50 [1]: 0.0032 µM
human MASP2 IC50 [2]: 1.6 µM

B5: ((N-Me)A)-IC+SRS-((tBu)A)-PPI-(Pen)+IP-NH2 (peptide)
peptide: [NMeA]ICSRS[tBuAla]PPI[Pen]IP-NH2
modifications: disulfide 3-11; N-terminus assumed
SMILES: CC[C@H](C)[C@H](NC(=O)[C@H](C)NC)C(=O)N[C@H]1CSSC(C)(C)[C@@H](C(=O)N[C@H](C(=O)N2CCC[C@H]2C(N)=O)[C@@H](C)CC)NC(=O)[C@H]([C@@H](C)CC)NC(=O)[C@@H]2CCCN2C(=O)[C@@H]2CCCN2C(=O)[C@H](CC(C)(C)C)NC(=O)[C@H](CO)NC(=O)[C@H](CCCNC(=N)N)NC(=O)[C@H](CO)NC1=O
human MASP1 IC50 [1]: 0.0032 µM
human MASP2 IC50 [2]: 0.024 µM

Further lines, results first:

human MASP1 IC50 [1]: 0.0032 µM
human MASP2 IC50 [2]: 0.075 µM
B4: HIC+SRS-((tBu)A)-PPI-(Pen)+IPD-NH2 (peptide)
peptide: HICSRS[tBuAla]PPI[Pen]IPD-NH2
modifications: disulfide 3-11; N-terminus assumed
SMILES: CC[C@H](C)[C@H](NC(=O)[C@@H](N)Cc1c[nH]cn1)C(=O)N[C@H]1CSSC(C)(C)[C@@H](C(=O)N[C@H](C(=O)N2CCC[C@H]2C(=O)N[C@@H](CC(=O)O)C(N)=O)[C@@H](C)CC)NC(=O)[C@H]([C@@H](C)CC)NC(=O)[C@@H]2CCCN2C(=O)[C@@H]2CCCN2C(=O)[C@H](CC(C)(C)C)NC(=O)[C@H](CO)NC(=O)[C@H](CCCNC(=N)N)NC(=O)[C@H](CO)NC1=O

human MASP1 IC50 [1]: 0.0012 µM
human MASP2 IC50 [2]: 0.62 µM
B6: A-((N-Me)I)-C+SRS-((tBu)A)-PPI-((N-Me)C)+IPD-NH2 (peptide)
peptide: A[NMeI]CSRS[tBuAla]PPI[NMeC]IPD-NH2
modifications: disulfide 3-11; N-terminus assumed
SMILES: CC[C@H](C)[C@@H]1NC(=O)[C@@H]2CCCN2C(=O)[C@@H]2CCCN2C(=O)[C@H](CC(C)(C)C)NC(=O)[C@H](CO)NC(=O)[C@H](CCCNC(=N)N)NC(=O)[C@H](CO)NC(=O)[C@@H](NC(=O)[C@H]([C@@H](C)CC)N(C)C(=O)[C@H](C)N)CSSC[C@@H](C(=O)N[C@H](C(=O)N2CCC[C@H]2C(=O)N[C@@H](CC(=O)O)C(N)=O)[C@@H](C)CC)N(C)C1=O
